Test results taken from the nanobody polyreactivity screen of Harvey et al. (2022).

Assay: yeast display, Sf9 membrane polyspecificity reagent, FACS + sequencing; frameworks hold sequencing errors
Method in brief: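 Polyreactivity labels are assigned by the sorting gate from which each nanobody was recovered. The gates were low and high (top ~1%), set on anti-HA fluorescence for expression and streptavidin fluorescence for reagent binding. Before sorting, galactose-induced (36–48 hours) yeast display cells were stained for 1 hour at 4 °C with 10% biotinylated, detergent-solubilized Sf9 membrane reagent.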

Sequence	polyreactivity (PSR sort gate)
QVQLVESGGGLVQAGGSLRLSCAASGRIFPYMGWYRQAPGKERELVAAISSRGGNTYYADSVKGRFTISRDNAKNTVYLQMNSLKPEDTAVYYCNKVKYTWYDWGQGTQVTVSS	high polyreactivity
QVQLVESGGGLVQAGGSLRLSCAASGRIFTSNAMGWYSQAPGKERELVAAITKSGGSTYYADSVKGRFTISRDNAKNTVYLQMNSLKPEVTAVYYCSAYPTSRYKYEYWGQGNQVTVSS	high polyreactivity
QVQLVESGVGLVQAGGSLRLSSAASGRILRQYAMGWYRQAPGKERELVAAITSSGGSTYYADSVKGRFTISRDNAKNTVYLQMNSLKPEDTAVYYCNARLRGAKYDYWGQGTQVTVSS	high polyreactivity
QVQLVESGGGLVQAGGSLRLSCAASGSTFVDNALGGYRQAPGKERELVAGISIGGITYYADSVKGRFTISRDNAKNTVYLQMNSLKPEDTAVYYCAKRHKRTRNKYYYWGQGTQVTVSS	high polyreactivity
QVQLVESGGGLVQAGGSLRLSFAASGFIFYRNTMGWYRQAPGKERELVAGITSGGRTNYADSVKGRFTISRDNAKNTVYLQMNSLKPEYTAVYYCNRVVYTYISTGSRHGRYNYWGQGTQVTVSS	high polyreactivity
QVQLVESGGGLVQAGGSLRLSCAASGSIFSDNAMGWYRQAPGKERELVASITNSGSTNYADSVKGRFTISRDNAKNTVYLQMNSLKPEDTAVYYCAFSFLYTYDYWGQGTQVTVSS	low polyreactivity
QVQLVESGGGLVQAGGSLRLSCAASGSIFDDNAMGWYRQAPGKERELVAAITSTDSTNYADSVKGRFTISRDNAKNPVYLQMNSLKPEDTAVYYCNAESLGWYRLYTVDYWGQGTQVTVSS	low polyreactivity
QVQLVESGGGLVKAGGSLRLSCAASGSIFAFYAMGWYRPAPGKERELVAAINSGGGRTYYEDSVKGRFTISRDNAKYTVYLQMNSLKPEDTAVYYCAARTIHGSNRSYYWGQGTQVTVSS	high polyreactivity
QVQLVESGGGLVQAGGSLRLSCAASGSIFTTYTMGWYRQAPGKERELVAAITSSSGSTYYADSVKGRFTISRDHAKNTVYLQMNSLKPEDTAVYYCNATYSAAVDYWGQGTQVTVSS	low polyreactivity
QVQLVESGGGLVQAGGILRLSCAASGRTFYINGMGWYRQAPGKEREFVASITWRGGRTYYADSVKGRFTISRDNAKNTVYLQMNSLKPEDTAVYYCIAVGLGGRAPSRWYTHYYCGQGTQVTVSS	high polyreactivity
QVHLVESGGGLVQAGGSLRLTCAASGSIFTYNAMGWYRQAPGKEREFVAAISRCGGNTKYADSVKGRFTISRDNAKNTVYFQMNSLKPEDTAVYYCAVRTIAYSGFRYNYWGQGTQVTVSS	high polyreactivity
QDQLVESGVGLVQPGGSLRLSCAASGITFRKYAMGWYRQAPGKERELVAAIRWSGTRTYYADSVKGRFTISRDNAKNTDYLQMNRLKPEDTAVYYCATVYGATPGRSGLDYWGQGTQVTVSS	high polyreactivity
QVQLVESGGGLVQAGGSLRLSCAASGFIFALYAMGWYRQAPGKERELVASISKSGARTYYADSVKGRFTISRDNAKNTVDLQMNSLKPEDPAVYYCAALYRTGGIQYAGYGYWGQGTQVTVSS	high polyreactivity
QVQLVESGGGLVQAGGSLRLSCAASGRTFGRYVMGWYRQAPGKERQLVARIRGSTTSTYYADSVKGRFTISRDNAKNTVYLQMNSLKPEDTAVYYCAASYSPFASSYGYDYWGQGTQVTVSS	high polyreactivity
QVLLVESGGGLVQAGGSLRLSCAASGRIFDDYAMGWYRQAPGKESELVAAITSGGRTYYADSVKGRFTISRDNAKNTVYLKMHSLKPDDTAVYYCAAQYGWFYEFVYWGQGTPVTVSS	high polyreactivity
QVQLVESGGGLVQAGGSLRLSCAASGFIFQANPMGWYRPAPGKERELVAAIDDGDSTYADSVKGRFTISRDNAKNTVYLQMNSLKPEDTAVYYCATRRKRSYDYWGHGTQVTVSS	low polyreactivity

Sequence	polyreactivity (PSR sort gate)
QVQLVDSGGGLVQAGGSLRLTCAASGRTFWKYCKGWYRQAPGQERELVAVMSRPAGSTYYADSVKGRFPISRDNAKNTGYLLLNRLKPEDTAVYSCAKRPKNKPVLGDYDHWGQGTQVTVSS	low polyreactivity
QDLLVESGGGLLQAGGSLRLICAASGYTFTYYAMGWYRQAPGKERELVAAINYSGGRTDYADSVKGRFTLSRDNAKNTVYLQKNSMNPEDTAVYYCAAYTRNGDFDYWGQGTQVTVSS	high polyreactivity
QVQLVESGGGLVQAGGSLRVSCAASGYTFVIYAMGWYRQAPGKERELVAAITTIGGRTYYADSVKGRFTISRDNAKNTVYLQMYSLKPEDTAVYYCATAAVTPVWYDYWGQGTQVTVSS	low polyreactivity
QVQLVESGGGLVQAGGSLRLICAASGSTYSVYAMVWYRQAPGKERELVATITWNGGRTYYADSVKGRFTISRDNAKNTVYLQMNSLKPEDTAVYYCAADGWTSIGGPDYQHDYWGQGTQVTVSS	high polyreactivity
QVQLVESGGCLVQAGGRLRLSCAASGSTFAYYSMGWDRQAPGKERELVAAITDSGGSTYYADSVKGRFTISRDNAKNTVYLQMNSLIPEDTAVYYCAVYGPWAYYPMGYWGQGSQVTVSS	low polyreactivity
QVQLVESGGGLVQAGGSLRLSCAASGGTLKYYAMGLYRQAPGKERELVATISSRGGSTYYADSVKGRFTISRDNAKNTVYLQMNSLKPEDTAVYYCARRYWVQSRYPEMDYWGQGTQVTVSS	high polyreactivity
QVQLVESGGGLVQAGGSLRLSCAASGRIIARNAMGWYRQAPGKEREFVAAITARGARTYYADSVKGRFTISRDNAKNTVYLQMNSLKPEDTAVYYCAVVQGNVYYTGDDYWGQGTQVTVSS	high polyreactivity
QVQLVESGGGLVQSGGSLRLSCAASGSINVYYAMGLYRQEPGKERDLVAAISASGGSTYYADSVKGRFTISRDNAKNTFYLQMKSLKPEDTAVYYCAADTFYSYYDMDYWGQGTQVTVSS	low polyreactivity
QVQLVESGGGLVQAGCSLRLSCAASGRTFSKYTMGWYRQAPGKERELVAAISGSGGSTYYADSVKGRFTISRDNAKNTVYLQMNSLKPEDTAVYYCAAEDEYNWYDDYFYTFDYWGQGTQVTVSS	low polyreactivity
QVQLVESGGGLVQAGGSLRLSCAASGSIFSWYAMGWYRQAPGKERELVAAITWTGGSTYYADSVKGRFTISRDNAKNTVYLQMLSLKPEDTAVYYCAARRVVYRYYWYSAYDYWGQGTQVTVSS	high polyreactivity
QFQRGESGGGLVQAGGSLRLSCAASGRLFYSYAMGGYRQAPGKERELVAAINSGDRTYYADSVKGRFTISRDNAKNTVYLQKNSLNPEDPAVYYCATRWFAFPWDEYNYWGQGSQVTVSS	low polyreactivity
QVQLVESGGGLVQAGGSLRLSCAASGSTFFTNAMAWYRQSPGKERELVASISFSGGRTYYADSVKGRFTISRDNAKNTVYLQMNSLKPEDTAVYYCAARRYRYTRYDYWGQGTQVTVSS	high polyreactivity
QVQLVESGGGLVQAGGSLRLSCAASGITFGYYDMGWYRQAPGKERELVASISSGGNTNYADSVKGRFTISRDNAKNTVYLQMNSLKPEDTAVYYCNVRYWGFYDYDYWGQGTQVTVSS	low polyreactivity
QVQIVESGGGLVQAGGSLRLSCAASGIIFRYYAMGWYRQAPGKERELVAAISSSGVSTYYADSVKGRFTISRDYAKNTVYLQMNSLKPEDTAVYYCAAVTTWRIDYWGQGTQVNVSS	high polyreactivity
QVQLVESCGGLVQAGCSLRLSCAASGRTFVWYAMGWNRQAPGKERELVAAITLSGGSTYYADSVKGRFTISRDNAKNTVFLQMNSLIPEDTAVYYCAADGTYRPEDYDYWGQGTQVTVSS	low polyreactivity
QVQLVESGGGLVQAGGSLRLSCAASGYTFAGNAMGWYRQAPGKERELVAAISRSGGRTYYAVSVKGRFTISRDNAKNTVYLQMNSLKPEDTAVYYCAAYFPRTLFEFGYWGQGTQVTVSS	high polyreactivity
